Assay results reported in patent US7763704B2, “Sushi peptide multimer” (priority 2003, dated 2010).

Assays:
[1] = system: LPS-induced hTNF-α secretion in THP-1 cells; assay: Suppression of LPS-induced hTNF-α secretion in human THP-1 cells; type: cell-based; conditions: for ENC50, concentration to achieve 50% inhibition of LPS-induced hTNF-α production: THP-1 cells incubated with 50 EU/ml of LPS, 6 h
Method: THP-1 cells were cultured at 37° C. in a humidified environment in the presence of 5% CO2. RPMI 1640 medium was supplemented with 10% fetal bovine serum (FBS), penicillin (100 U/ml), and streptomycin (100 μg/ml). The cells were maintained at a density of 2.5×10^5-6 cells/ml. THP-1 monocytes were transformed into macrophages by addition of phorbol myristic acid, PMA (Sigma) at a stock of 0.3 mg/ml in dimethyl sulfoxide to give a final concentration of 30 ng/ml and 0.01% dimethyl sulfoxide. PMA-treated cell suspensions were immediately plated into 96-well microtiter plate at a density of 4×10^5 cells/ml and allowed to differentiate for 48 h at 37° C. The culture medium was removed and the cells were washed twice with serum-free RPMI 1640. Thereafter, the macrophages were stimulated with 50 EU/ml LPS (a specific activity of LPS that has been standardized by LAL test against FDA-approved LPS standards), peptides alone or LPS (preincubated with various concentrations of peptides) and incubated at 37° C. After 6 h, the culture medium was collected and hTNF-α concentration in the supernatants was assayed using ELISA.

[2] = Surface plasmon resonance (BIAcore 2000, HPA chip) realtime interaction analysis between peptides and LPS; type: binding; conditions: 20 mM Tris-Cl, pH7.3; HPA chip immobilized with lipid A; mean of three independent experiments
Method: Surface plasmon resonance (SPR) analysis of the real time interaction between peptides and LPS was performed with BIAcore 2000 (Pharmacia) using HPA chip (Tan et al, 2000b). The affinity constant was calculated using BIAevaluation software 3.0. The mean values were obtained from three independent experiments.
At 4 μg/ml, both recombinant peptides reached saturation of binding to LPS (FIG. 4), while the chemically synthesized peptide continued linearly and required 20 μg/ml to reach saturation of binding with LPS (data not shown). The EBC50 (Endotoxin Binding Concentration) of the peptide, which achieves 50% of maximum binding to LPS on the ELISA plate, reflects the binding activity of peptide to LPS, with the lower EBC50 indicating higher potency. […] The kinetics of binding of peptides to LPS in 20 mM Tris-Cl, pH7.3, was also measured by SPR analysis with BIAcore 2000 using HPA chip, which was immobilized with lipid A (bioactive moiety of LPS). The Kd values of chemically synthesized S3, rS3-1mer and rS3-4mer are (7.80±2.18)×10^−7 M, (4.74±2.34)×10^−8 M, (1.71±1.86)×10^−8 M, respectively.

[3] = ELISA-based LPS binding assay; set-up: species or system Escherichia coli 055:B5; conditions: peptide concentration achieving 50% of maximum binding to LPS on the ELISA plate
Method: LPS was coated overnight on 96-well plates. Varying concentrations of peptides were allowed to interact with the immobilized LPS. The amount of bound peptides was determined by rabbit anti-S3 IgG and quantitated by ABTS substrate. The average OD405nm of the triplicate samples were calculated and plotted with the corresponding concentration.
The polysorp 96-well plate (MaxiSorp™, Nunc) was first coated with 100 μl per well of 4 μg/ml (approximately 1 μM) of LPS diluted in pyrogen-free phosphate-buffered saline (PBS). The plate was sealed and incubated overnight at room temperature. The wells were aspirated and washed 4 times with 300 μl wash solution (PBS containing 0.05% Tween-20). The wells were blocked with wash solution containing 2% BSA for 1 h at room temperature. After washing 2 times, varying concentrations of peptides were allowed to interact with bound LPS at room temperature for 3 h. Bound peptides were detected by incubation with rabbit anti-S3 antibody and 1:2000 of goat anti-rabbit antibody conjugated with HRP. Each antibody was incubated for 2 h at 37° C. In the final step, 100 μl of substrate, ABTS (Boehringer Mannheim), was added. The absorbance was measured at 405 nm with reference wavelength at 490 nm.

[4] = system: LPS-induced limulus amoebocyte lysate (LAL) reaction; assay: Endotoxin neutralization assay based on anti-LAL test (LAL Kinetic-QCL); type: biochemical, Escherichia coli 055:B5; conditions: for ENC50 (50% endotoxin-neutralizing concentration), inhibition of LPS-induced LAL assay: against 5 EU/ml of LPS
Source text: The LAL Kinetic-QCL kit utilizes the initial part of the LPS-triggered cascade in limulus amoebocyte lysate to achieve an enzymatic reaction, which catalyses the release of p-nitroaniline from a synthetic substrate, producing a yellow color, which is quantifiable by absorbance at 405nm. The ENC50 (Endotoxin Neutralization Concentration) refers to the peptide concentration required to neutralize 50% of a predetermined quantity of endotoxin. A low ENC50 indicates high potency of the peptide for endotoxin neutralization.
In this assay, peptides of different concentrations were incubated for 1 h at 37° C. with or without an equal volume of LPS in disposable, endotoxin-free borosilicate tubes. Fifty microliters of each mixture was then dispensed into wells of a sterile microtiter plate (Nunclon™ Δsurface, Nunc). Fifty microliters of freshly reconstituted LAL reagent was dispensed into each well.

[5] = compared with rS3-1mer and chemically synthesized S3

Molecule: rS3-1mer: recombinant S3 monomer from acid digestion of rS3-4mer, with additional Asp and Pro at the ends, SEQ ID NO:7 (PHAEHKVKIGVEQKYGQFPQGTEVTYTCSGNYFLMD)
- ENC50, concentration to achieve 50% inhibition of LPS-induced hTNF-α production [1]: 83.2 µg/mL
- Kd [2]: 47.4 nM
- EBC50 (Endotoxin Binding Concentration) [3]: 1.02 µg/mL
- ENC50 (50% endotoxin-neutralizing concentration), inhibition of LPS-induced LAL assay [4]: 9.2 µg/mL

B1: rS3-4mer: recombinant tetramer of S3 peptide in tandem repeat with Asp-Pro linkers, 18.4 kDa, SEQ ID NO:9 (protein)
chain: PQDPHAEHKVKIGVEQKYGQFPQGTEVTYTCSGNYFLMDPQDPHAEHKVKIGVEQKYGQFPQGTEVTYTCSGNYFLMDPQDPHAEHKVKIGVEQKYGQFPQGTEVTYTCSGNYFLMDPQDPHAEHKVKIGVEQKYGQFPQGTEVTYTCSGNYFLMD
- ENC50, concentration to achieve 50% inhibition of LPS-induced hTNF-α production [1]: 40.4 µg/mL
- fold higher anti-LPS activity than the monomers (suppression of TNF-α release) [1, 5]: 2 fold
- Kd [2]: 17.1 nM
- EBC50 (Endotoxin Binding Concentration) [3]: 0.41 µg/mL
- ENC50 (50% endotoxin-neutralizing concentration), inhibition of LPS-induced LAL assay [4]: 5.4 µg/mL
- fold stronger LPS neutralization efficacy than the monomeric peptides (LAL inhibition) [4, 5]: 2 fold
